B1: Beta-taxilin (Homo sapiens), Q8N3L3 (parent)
chain: MEANHSEQLSAERQSTPPGDSSSLPSHNGLEKEDGQDSPTPVQPPEKEASVHPDISEELNRQLEDIINTYGSAASTAGKEGSARASEQPENAESPDNEDGDCEETTEEAGREPVASGEPPTVKEPVSNKEQKLEKKILKGLGKEANLLMQNLNKLQTPEEKFDFLFKKYAELLDEHRTEQKKLKLLQKKQVQIQKEKDQLQGEHSRAILARSKLESLCRELQRHNKTLKEEALQRAREEEEKRKEITSHFQSTLTDIQGQIEQQSERNMKLCQENTELAEKLKSIIDQYELREEHLDKIFKHRELQQKLVDAKLEQAQEMMKEAEERHKREKEYLLNQAAEWKLQAKVLKEQETVLQAQLTLYSGRFEEFQSTLTKSNEVFATFKQEMDKTTKKMKKLEKDTATWKARFENCNKALLDMIEEKALRAKEYECFVMKIGRLENLCRALQEERNELHKKIRDAEISEKDDQSQHNSDEEPESNVSVDQEIDAEEVNSVQTAVKNLATAFMIIHHPESTPHQSKETQPEIGSSQESADAALKEPEQPPLIPSRDSESPLPPLTPQAEAEGGSDAEPPSKASNSPAGLGAETQCEGLPVGAQADQASWKPEAEASGQAPQAPTEASLQKMEADVPAPACAAEEHVAAMVPACEPSRQPPRAAAEELPVGASAGPQPRNVADTNLEGVD
partner: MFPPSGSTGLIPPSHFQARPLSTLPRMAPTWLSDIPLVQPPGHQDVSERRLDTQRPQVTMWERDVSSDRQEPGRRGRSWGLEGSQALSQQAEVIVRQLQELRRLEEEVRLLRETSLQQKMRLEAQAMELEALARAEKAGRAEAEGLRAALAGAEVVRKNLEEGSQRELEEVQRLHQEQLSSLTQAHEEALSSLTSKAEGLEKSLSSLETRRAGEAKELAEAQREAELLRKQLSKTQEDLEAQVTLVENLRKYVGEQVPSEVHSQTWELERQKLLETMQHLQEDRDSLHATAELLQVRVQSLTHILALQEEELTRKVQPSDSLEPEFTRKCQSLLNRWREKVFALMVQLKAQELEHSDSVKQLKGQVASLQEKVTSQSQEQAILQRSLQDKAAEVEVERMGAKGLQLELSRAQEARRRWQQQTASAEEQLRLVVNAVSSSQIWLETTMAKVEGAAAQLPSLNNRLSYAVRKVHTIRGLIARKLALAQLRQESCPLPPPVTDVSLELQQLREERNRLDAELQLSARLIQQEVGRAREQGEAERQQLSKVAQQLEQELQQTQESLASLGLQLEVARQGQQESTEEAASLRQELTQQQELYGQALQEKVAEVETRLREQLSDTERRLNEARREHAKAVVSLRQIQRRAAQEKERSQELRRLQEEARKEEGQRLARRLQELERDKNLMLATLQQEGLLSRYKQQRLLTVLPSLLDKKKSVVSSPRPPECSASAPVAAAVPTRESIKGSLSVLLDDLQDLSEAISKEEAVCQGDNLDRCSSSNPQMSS
B2: Protein LDOC1 (Homo sapiens), O95751 (parent)
chain: MVDELVLLLHALLMRHRALSIENSQLMEQLRLLVCERASLLRQVRPPSCPVPFPETFNGESSRLPEFIVQTASYMLVNENRFCNDAMKVAFLISLLTGEAEEWVVPYIEMDSPILGDYRAFLDEMKQCFGWDDDEDDDDEEEEDDY
partner: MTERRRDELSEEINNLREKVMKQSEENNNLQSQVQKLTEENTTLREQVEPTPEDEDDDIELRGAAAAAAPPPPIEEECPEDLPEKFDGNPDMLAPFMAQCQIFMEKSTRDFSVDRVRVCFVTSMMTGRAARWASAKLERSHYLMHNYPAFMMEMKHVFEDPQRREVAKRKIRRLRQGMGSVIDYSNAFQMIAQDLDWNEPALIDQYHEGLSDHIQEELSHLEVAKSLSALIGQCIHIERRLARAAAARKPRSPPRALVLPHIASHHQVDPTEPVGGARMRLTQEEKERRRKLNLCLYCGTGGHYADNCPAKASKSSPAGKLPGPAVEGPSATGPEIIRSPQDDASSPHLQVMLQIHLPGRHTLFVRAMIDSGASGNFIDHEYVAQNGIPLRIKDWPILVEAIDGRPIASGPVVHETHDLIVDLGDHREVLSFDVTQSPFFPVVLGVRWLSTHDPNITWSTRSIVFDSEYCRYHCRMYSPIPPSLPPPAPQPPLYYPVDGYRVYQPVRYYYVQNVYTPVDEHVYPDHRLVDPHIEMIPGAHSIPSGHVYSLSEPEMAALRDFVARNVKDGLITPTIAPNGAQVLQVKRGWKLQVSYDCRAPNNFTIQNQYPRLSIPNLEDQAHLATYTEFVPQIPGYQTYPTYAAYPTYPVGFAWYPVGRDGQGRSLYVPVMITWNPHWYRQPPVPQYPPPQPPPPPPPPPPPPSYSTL
B3: Protein BANP (Homo sapiens), Q8N9N5-2 (parent)
chain: MMSEHDLADVVQIAVEDLSPDHPVVLENHVVTDEDEPALKRQRLEINCQDPSIKSFLYSINQTICLRLDSIEAKLQALEATCKSLEEKLDLVTNKQHSPIQVPMVAGSPLGATQTCNKVRCAVPGRRQNTIVVKVPGQEDSHHEDGESGSEASDSVSSCGQAGSQSIGSNVTLITLNSEEDYPNGTWLGDENNPEMRVRCAIIPSDMLHISTNCRTAEKMALTLLDYLFHREVQAVSNLSGQGKHGKKQLDPLTIYGIRCHLFYKFGITESDWYRIKQSIDSKCRTAWRRKQRGQSLAVKSFSRRTPNSSSYCPSEPMMSTPPPASELPQPQPQPQALHYALANAQQVQIHQIGEDGQVQVIPQGHLHIAQVPQGEQVQITQDSEGNLQIHHVGQDGQVLQGAQLIAVASSDPAAAGVDGSPLQGSDIQVQYVQLAPVSDHTAGAQTAEALQPTLQPEMQLEHGAIQIQ
partner: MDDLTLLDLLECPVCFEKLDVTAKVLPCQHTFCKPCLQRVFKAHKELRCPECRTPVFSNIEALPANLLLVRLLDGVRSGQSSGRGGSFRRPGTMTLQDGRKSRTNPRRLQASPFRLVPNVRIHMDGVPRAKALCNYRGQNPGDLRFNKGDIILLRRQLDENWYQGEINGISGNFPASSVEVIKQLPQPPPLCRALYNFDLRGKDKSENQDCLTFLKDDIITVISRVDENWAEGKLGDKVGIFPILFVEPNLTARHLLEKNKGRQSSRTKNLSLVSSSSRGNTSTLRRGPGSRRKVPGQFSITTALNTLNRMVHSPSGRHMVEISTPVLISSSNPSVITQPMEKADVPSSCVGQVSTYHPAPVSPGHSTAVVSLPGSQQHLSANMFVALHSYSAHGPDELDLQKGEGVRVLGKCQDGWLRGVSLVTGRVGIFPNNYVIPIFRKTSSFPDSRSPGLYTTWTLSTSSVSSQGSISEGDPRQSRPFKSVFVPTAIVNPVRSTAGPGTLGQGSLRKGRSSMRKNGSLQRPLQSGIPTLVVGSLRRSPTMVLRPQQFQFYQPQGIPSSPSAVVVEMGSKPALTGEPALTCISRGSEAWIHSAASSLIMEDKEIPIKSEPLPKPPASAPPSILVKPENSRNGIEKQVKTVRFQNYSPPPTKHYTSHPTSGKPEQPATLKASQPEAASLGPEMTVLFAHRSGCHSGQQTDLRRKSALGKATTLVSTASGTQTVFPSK
B4: Ropporin-1A (Homo sapiens), Q9HAT0 (parent)
chain: MAQTDKPTCIPPELPKMLKEFAKAAIRVQPQDLIQWAADYFEALSRGETPPVRERSERVALCNRAELTPELLKILHSQVAGRLIIRAEELAQMWKVVNLPTDLFNSVMNVGRFTEEIEWLKFLALACSALGVTITKTLKIVCEVLSCDHNGGSPRIPFSTFQFLYTYIAKVDGEISASHVSRMLNYMEQEVIGPDGIITVNDFTQNPRVQLE
partner: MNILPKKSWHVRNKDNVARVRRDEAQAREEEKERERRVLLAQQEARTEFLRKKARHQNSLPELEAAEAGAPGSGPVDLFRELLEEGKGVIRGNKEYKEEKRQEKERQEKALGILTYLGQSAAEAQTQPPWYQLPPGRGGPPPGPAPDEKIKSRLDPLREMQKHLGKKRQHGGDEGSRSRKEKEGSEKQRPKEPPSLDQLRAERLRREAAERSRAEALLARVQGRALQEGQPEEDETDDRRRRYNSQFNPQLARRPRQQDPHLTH
B5: SHC-transforming protein 1 (Homo sapiens), P29353 (parent)
chain: MDLLPPKPKYNPLRNESLSSLEEGASGSTPPEELPSPSASSLGPILPPLPGDDSPTTLCSFFPRMSNLRLANPAGGRPGSKGEPGRAADDGEGIVGAAMPDSGPLPLLQDMNKLSGGGGRRTRVEGGQLGGEEWTRHGSFVNKPTRGWLHPNDKVMGPGVSYLVRYMGCVEVLQSMRALDFNTRTQVTREAISLVCEAVPGAKGATRRRKPCSRPLSSILGRSNLKFAGMPITLTVSTSSLNLMAADCKQIIANHHMQSISFASGGDPDTAEYVAYVAKDPVNQRACHILECPEGLAQDVISTIGQAFELRFKQYLRNPPKLVTPHDRMAGFDGSAWDEEEEEPPDHQYYNDFPGKEPPLGGVVDMRLREGAAPGAARPTAPNAQTPSHLGATLPVGQPVGGDPEVRKQMPPPPPCPGRELFDDPSYVNVQNLDKARQAVGGAGPPNPAINGSAPRDLFDMKPFEDALRVPPPPQSVSMAEQLRGEPWFHGKLSRREAEALLQLNGDFLVRESTTTPGQYVLTGLQSGQPKHLLLVDPEGVVRTKDHRFESVSHLISYHMDNHLPIISAGSELCLQQPVERKL
partner: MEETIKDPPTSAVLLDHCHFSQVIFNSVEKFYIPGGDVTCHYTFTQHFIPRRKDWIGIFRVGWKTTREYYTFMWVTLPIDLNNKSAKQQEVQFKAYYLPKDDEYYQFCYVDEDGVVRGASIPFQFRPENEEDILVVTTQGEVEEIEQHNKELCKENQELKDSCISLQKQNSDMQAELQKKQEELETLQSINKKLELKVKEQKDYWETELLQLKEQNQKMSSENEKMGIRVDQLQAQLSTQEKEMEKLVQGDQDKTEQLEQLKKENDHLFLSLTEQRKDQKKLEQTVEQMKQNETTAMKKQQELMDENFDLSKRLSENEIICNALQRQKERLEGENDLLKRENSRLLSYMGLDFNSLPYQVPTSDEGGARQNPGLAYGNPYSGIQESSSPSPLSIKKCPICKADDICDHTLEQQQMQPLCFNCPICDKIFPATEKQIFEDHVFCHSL

Variants of: B1
Conditions: with cchcr_human CCHCR1, Q8TD31
I527T was tested, and the “effect of a mutation on the interaction” value was “with no effect”.

Variants of: B2
Conditions: with peg10_human PEG10, Q86TG7
L12H was tested, and the “effect of a mutation on the interaction” value was “with no effect”.

Variants of: B3
Conditions: with sh3r2_human SH3RF2, Q8TEC5
A162V was tested, and the “effect of a mutation on the interaction” value was “with no effect”.

Variants of: B4
Conditions: with leng1_human LENG1, Q96BZ8
With C62W the “effect of a mutation on the interaction” value was “with no effect”.

Variants of: B5
Conditions: with caco2_human CALCOCO2, Q13137
For R369Q, the “effect of a mutation on the interaction” value was “with no effect”.
